Among the data in patent US20230265171A1 are EC50 values, retold here.

Experiment in all cases: ELISA, antigen coated at 2 µg/mL
On the technique in general: An ELISA detects its analyte on a solid surface through an enzyme-linked reagent.

Assay [1] addresses CoV-2 RBD (W436R) (SARS-CoV-2) (UniProt P0DTC2).
For assay [2], the target named is CoV-2 RBD (N354D) (SARS-CoV-2) (UniProt P0DTC2).
Assay [3] deals with CoV-2 RBD (V367F) (SARS-CoV-2) (UniProt P0DTC2).
Assay [4] addresses CoV-2 S (R683A, R685A) (SARS-CoV-2) (UniProt P0DTC2).
For assay [5], the target named is CoV-2 S (D614G) (SARS-CoV-2) (UniProt P0DTC2).
Assay [6] deals with CoV-2 RBD (N354D, D364Y) (SARS-CoV-2) (UniProt P0DTC2).

As to IVIG (Gamunex), the EC50 (as a rule, the concentration needed to bring the measured effect to its halfway point) in assay [1] amounted to 1240 µg/mL; in assay [2], 1240 µg/mL; in assay [3], 1130 µg/mL; in assay [4], 2840 µg/mL; in assay [5], 1330 µg/mL; in assay [6], 1320 µg/mL.
Regarding SARS CoV-2 mAb [SAD-S35] (antibody), the EC50 in assay [1] came out at 0.04 µg/mL; in assay [2], 0.04 µg/mL; in assay [3], 0.04 µg/mL; in assay [4] it was 0.05 µg/mL; in assay [5], 0.03 µg/mL; in assay [6] it was 0.05 µg/mL.
